The values below come from US7611713.

Where two headings read alike, the source gives them in different places.

Assay [1] concerns the target HLA-A*0201 (human). Briefly: competitive inhibition of radiolabeled standard peptide binding to purified HLA.
Assay [2] deals with HLA-A*0201 (human).
Assay [3] deals with HLA-DR4w4 (DRB1*0401) (human). Put plainly: competition with standard peptide for purified HLA-DR, relative to standard.
Assay [4] concerns the target HLA-DR1 (DRB1*0101) (human). The description is as above.
Assay [5] concerns the target HLA-DR7 (DRB1*0701) (human). Described as above.
Assay [6] concerns the target HLA-DR5w11 (DRB1*1101) (human). The description is as above.
The target of assay [7] is HLA-DR1 (DRB1*0101) (human).
Assay [8] addresses HLA-DR7 (DRB1*0701) (human).
The target of assay [9] is HLA-DR5w11 (DRB1*1101) (human).
Assay [10] concerns the target HLA-DR4w4 (DRB1*0401) (human). Put plainly: HLA class II peptide binding assay, ratio to standard peptide. Particulars: remark: other sources report otherwise.
Assay [11] addresses HLA-DR1 (DRB1*0101) (human). The assay is described as above. Conditions: remark: other sources report otherwise.
Assay [12] addresses HLA-DR7 (DRB1*0701) (human). The assay is described as above. Particulars: remark: other sources report otherwise.
Assay [13] addresses HLA-DR5w11 (DRB1*1101) (human). Described as above. Conditions: remark: other sources report otherwise.
The target in assay [14] is HLA-A*1101 (human).
A further assay deals with HLA-B*5401 (human). Briefly: competition with radiolabeled standard peptide for purified HLA, gel filtration. Particulars: remark: other sources report otherwise.
In another assay the target is HLA-B*0702 (human). The description is as above.
The next assay deals with HLA-B*5101 (human). The description is as above. Particulars: remark: other sources report otherwise.
Assay [15] concerns the target HLA-DRw53 (DRB4*0101) (human). Briefly: competition with standard peptide for purified HLA-DR, relative to standard.
Assay [16] concerns the target HLA-DR2w2β1 (DRB1*1501) (human).
Assay [17] deals with HLA-DR6w19 (DRB1*1302) (human).
Assay [18] concerns the target HLA-DR2w2β2 (DRB5*0101) (human).
Assay [19] deals with HLA-A*1101 (human). The source holds these as a separate data set.
For assay [20], the target named is HLA-B*0701 (as printed in the head of Table XXII) (human). Briefly: competitive inhibition of radiolabeled standard peptide binding to purified HLA.
Assay [21] deals with HLA-DR6w19 (DRB1*1302) (human). Briefly: HLA class II peptide binding assay, ratio to standard peptide. Conditions: remark: other sources report otherwise.
The target of assay [22] is HLA-DR3 (DRB1*0301) (human). The description is as above. Particulars: remark: other sources report otherwise.
In assay [23] the target is HLA-DR2w2β1 (DRB1*1501) (human). Described as above.
Assay [24] addresses HLA-DR4w15 (DRB1*0405) (human). The description is as above. Particulars: remark: other sources report otherwise.
[25] abbreviates: remark: other sources report otherwise.

Regarding YVPSALNPA (modifications not checked) [HBV POL 768 peptide …], the binding affinity ratio (IC50 of standard peptide / IC50 of test peptide) with HLA-A*0201 (human) [1] amounted to 0.0039.

Consider QLLWFHISCL (modifications not checked) [HBV NUC 99 peptide … (peptide 1142.03)], for which, in the assay with HLA-A*0201 (human) [2], the binding affinity ratio (IC50 of standard peptide / IC50 of test peptide) turned out to be 0.006. Consider IVGLLGFAAPFTQCG (modifications not checked), for which the binding affinity ratio (IC50 of standard peptide / IC50 of test peptide) was -0.0007 in assay [3], 0.02 in assay [4], 0.0009 in assay [5] and -0.0002 in assay [6]. Consider SLNFMGYVI (modifications not checked) [HBV POL 581 peptide …], for which the binding affinity ratio (IC50 of standard peptide / IC50 of test peptide) with HLA-A*0201 (human) [2] is 0.0038. For the molecule SVRFSWLSLL (modifications not checked) [HBV ENV 330 peptide …], the binding affinity ratio (IC50 of standard peptide / IC50 of test peptide) in the assay with HLA-A*0201 (human) [2] worked out at 0.0004. Regarding VLGGCRHK (modifications not checked) [HBV X 133 peptide VLGGCRHK], the binding affinity ratio (IC50 of standard peptide / IC50 of test peptide) with HLA-A*3301 (human) is -0.0009; in the assay with HLA-A*3101 (human), -0.0005.

Regarding WPKFAVPNLQSLTNL (modifications not checked), the binding affinity ratio (IC50 of standard peptide / IC50 of test peptide) came to 0.0007 in [7], 0.0008 in assay [8] and 0.0002 in [9].

For LIFLLVLL (modifications not checked) [HBV ENV 254 peptide LIFLLVLL], the binding affinity ratio (relative to standard peptide) in the assay with HLA-A*0201 (human) [2] was found to be 0.0025. Regarding NAPILSTLPETTVVR (modifications not checked), the binding affinity ratio (IC50 of standard peptide / IC50 of test peptide) in assay [10] is -0.0007; in [11], 0.0009; in assay [12] it was 0.0005; in assay [13], -0.0002. As for RVTGGVFLV (modifications not checked) [HBV POL 357 peptide …], in the assay with HLA-A*0201 (human) [2] (setting [25]), the binding affinity ratio (IC50 of standard peptide / IC50 of test peptide) stood at 0.0041. Take LDTASALYR (modifications not checked) [HBV NUC 60 peptide …]: in the assay with HLA-A*1101 (human) [14], the binding affinity ratio (IC50 of standard peptide / IC50 of test peptide) was -0.0002. As to WPKFAVPNL (modifications not checked) [HBV POL 393 peptide …], the binding affinity ratio (IC50 of standard peptide / IC50 of test peptide) was found to be 0.0015 with HLA-B*5401 (human), 0.0054 with HLA-B*0702 (human) (setting [25]) and 0.0016 with HLA-B*5101 (human). Take ILRGTSFVY (modifications not checked) [HBV POL 771 peptide …]: the binding affinity ratio (IC50 of standard peptide / IC50 of test peptide) in the assay with HLA-A*0301 (human) (setting [25]) came to 0.044.

On to LLGCAANWI (modifications not checked) [HBV POL 752 peptide …], for which, in the assay with HLA-A*0201 (human) [2], the binding affinity ratio (relative to standard peptide) is 0.0011. For ASKLCLGWLWGMDID (modifications not checked), the figures for the binding affinity ratio (IC50 of standard peptide / IC50 of test peptide) in [4], in [15] and in [6] were 0.0002, 0.001 and -0.0002, respectively. With VGNFTGLYSSTVPVF (modifications not checked), the binding affinity ratio (IC50 of standard peptide / IC50 of test peptide) stood at 0.01 in assay [16] and 0.56 in [8] (setting [25]). As to VGLLGFAAPFTQCGY (modifications not checked), the binding affinity ratio (IC50 of standard peptide / IC50 of test peptide) in assay [17] is -0.0001; in assay [18], 0.0008; in [9], -0.0004. Turning to HLNPNKTKR (modifications not checked) [HBV POL 569 peptide …], in the assay with HLA-A*0301 (human), the binding affinity ratio (IC50 of standard peptide / IC50 of test peptide) came out at 0.0025. Consider LLDYQGML (modifications not checked) [HBV ENV 260 peptide LLDYQGML], for which, in the assay with HLA-A*0201 (human) [2], the binding affinity ratio (relative to standard peptide) worked out at 0.0004. As for TTVVRRRGR (modifications not checked) [HBV NUC 175 peptide …], the binding affinity ratio (IC50 of standard peptide / IC50 of test peptide) in the assay with HLA-A*3301 (human) turned out to be 0.14; with HLA-A*1101 (human) [19], 0.0005; with HLA-A*6801 (human), 0.0095; with HLA-A*3101 (human), 0.25. Consider LLDTASALYR (modifications not checked) [HBV NUC 30 peptide …], for which the binding affinity ratio (IC50 of standard peptide / IC50 of test peptide) in the assay with HLA-A*0301 (human) worked out at 0.005. On to LSFLPSDFF (modifications not checked) [HBV NUC 45 peptide …], for which the binding affinity ratio (IC50 of standard peptide / IC50 of test peptide) with HLA-A*0301 (human) is 0.0006. MPKAGLLII (modifications not checked) [MAGE3 196] came in with an IC50 in assay [20] of 940 nM.

VPNLQSLTNL (modifications not checked) [HBV POL 398 peptide …]: in the assay with HLA-B*0702 (human), the binding affinity ratio (IC50 of standard peptide / IC50 of test peptide) was found to be 0.0006. Take PLPIHTAELLAACFA (modifications not checked): the binding affinity ratio (IC50 of standard peptide / IC50 of test peptide) is 0.0046 in assay [11] and -0.0003 in [12].

For the molecule LAQFTSAICSVVRRA (modifications not checked), the binding affinity ratio (IC50 of standard peptide / IC50 of test peptide) is 0.001 in assay [21]; -0.0009 in assay [22]; 0.0065 in assay [23]; 0.028 in [24]; 0.028 in assay [12]; 0.0076 in [13]. For RDLLDTASALYREAL (modifications not checked), the binding affinity ratio (IC50 of standard peptide / IC50 of test peptide) in assay [7] (setting [25]) was determined as 0.0001; in [8] (setting [25]), 0.077.

Regarding STLPETTVV (modifications not checked) [HBV NUC 141 peptide …], the binding affinity ratio (IC50 of standard peptide / IC50 of test peptide) with HLA-A*0201 (human) [2] amounted to 0.0019. Consider KAGILYKR (modifications not checked) [HBV POL 153 peptide KAGILYKR], for which, in the assay with HLA-A*1101 (human) [14], the binding affinity ratio (IC50 of standard peptide / IC50 of test peptide) was -0.0002.

As for AEDLNLGNLNVSIPW (modifications not checked), the binding affinity ratio (IC50 of standard peptide / IC50 of test peptide) is -0.0007 in assay [3], 0.0001 in [4], -0.0003 in assay [5] and -0.0002 in [6]. For the molecule DLNLGNLNVSIPWTH (modifications not checked), the binding affinity ratio (IC50 of standard peptide / IC50 of test peptide) in assay [5] amounted to 0.001. For the molecule LLVLQAGFF (modifications not checked) [HBV ENV 175 peptide …], the binding affinity ratio (IC50 of standard peptide / IC50 of test peptide) with HLA-A*0301 (human) was 0.0006.

Turning to DSWWTSLNF (modifications not checked) [HBV ENV 207 … (peptide 20.0120)], the binding affinity ratio with HLA-A*0301 (human) was 0.0006.
